Measured values taken from patent US20090192048A1, “METHOD OF PRODUCING A […] AGENT FOR BINDING A LIGAND” (priority 2005, published 2009).
Ends that are not written are not given here.

Assay: Retention of peptides P1-1 to P1-5 on a polypropylene sheet after successive washes
Format: physicochemical
Details: after first wash scan; unwashed control array
Experimental: Further experiments were undertaken to investigate the retention of peptides P1-1 to, P1-5 and P2-1 to P2-2, shown in Table 3, on a polypropylene surface.
The polypropylene sheet was wiped with 50% (v/v) aqueous acetonitrile prior to use.
8× replicate 20 nl volumes of 1 μM peptides P1-1 to P1-5 and P2-1 to P2-2 and TAMRA in dimethyl sulphoxide (DMSO) were dispensed at 1 mm spacing to a 3″×1″×1 mm polypropylene sheet using the Piezorray system (PerkinElmer LAS). 500 drops were pre-dispensed using the ‘side shoot’ option and the tuning was set to 72V for 30 μs.
The slide was imaged at 10 μm resolution on a Typhoon Trio Plus variable mode imager (Amersham Biosciences) with the green (532 nm) laser and the 580 BP 30 filter at a PMT voltage of 600 V and at normal sensitivity. The scan height was set at the platen and the samples were pressed during scanning. The fluorescence image was analysed using ImageQuant TL v2003.03 (Amersham Biosciences).
The lower half of the slide (containing the test array) was then washed in 100 ml of 1 M NaCl containing 10 mM tris-HCl (pH 8.0) for one minute and were re-scanned as described above.
The same half of the slide was then washed for a second time in 100 ml of 1 M NaCl containing 10 mM tris-HCl (pH 8.0) for 30 minutes and re-scanned as described above.
The same half of the slide was then washed for a third time in 100 ml of water for 30 minutes and re-scanned as described above.
In the case of “TAMRA-F-G-F-G-F-G-F-G-F-S-F-A-F-D-F-G-F ({TAMRA}-FGFGFGFGFSFAFDFGF) [Peptide P1-4]”, the “Average fluorescence, control array” value is reported as 187,287,630. In the case of “TAMRA-F-G-F-G-F-S-F-A-F-D-F-G-F ({TAMRA}-FGFGFSFAFDFGF) [Peptide P1-2]”, the “Average fluorescence, control array” value is reported as 200,280,129.

Same assay, conditions: after first wash scan; unwashed control array; slide background subtracted
In the case of “TAMRA-F-G-F-G-F-G-F-G-F-S-F-A-F-D-F-G-F ({TAMRA}-FGFGFGFGFSFAFDFGF) [Peptide P1-4]”, the “Corrected signal, control array” value is reported as 40,595,958. For “TAMRA-F-G-F-G-F-S-F-A-F-D-F-G-F ({TAMRA}-FGFGFSFAFDFGF) [Peptide P1-2]”, the “Corrected signal, control array” value was 53,588,457.

Same assay, conditions: after first wash: 1 M NaCl/10 mM tris-HCl (pH 8.0), one minute
In the case of “TAMRA-F-G-F-G-F-G-F-G-F-S-F-A-F-D-F-G-F ({TAMRA}-FGFGFGFGFSFAFDFGF) [Peptide P1-4]”, the “Average fluorescence, test array” value is reported as 189,823,310. In the case of “TAMRA-F-G-F-G-F-S-F-A-F-D-F-G-F ({TAMRA}-FGFGFSFAFDFGF) [Peptide P1-2]”, the “Average fluorescence, test array” value is reported as 170,078,218.

Same assay, conditions: after first wash: 1 M NaCl/10 mM tris-HCl (pH 8.0), one minute; background subtracted
With “TAMRA-F-G-F-G-F-G-F-G-F-S-F-A-F-D-F-G-F ({TAMRA}-FGFGFGFGFSFAFDFGF) [Peptide P1-4]” the “Corrected signal, test array” value was 35,325,352. For “TAMRA-F-G-F-G-F-S-F-A-F-D-F-G-F ({TAMRA}-FGFGFSFAFDFGF) [Peptide P1-2]”, the “Corrected signal, test array” value was 15,580,260.

Same assay, conditions: after second wash scan; unwashed control array
For “TAMRA-F-G-F-G-F-G-F-G-F-S-F-A-F-D-F-G-F ({TAMRA}-FGFGFGFGFSFAFDFGF) [Peptide P1-4]”, the “Average fluorescence, control array” value was 179,942,418. With “TAMRA-F-G-F-G-F-S-F-A-F-D-F-G-F ({TAMRA}-FGFGFSFAFDFGF) [Peptide P1-2]” the “Average fluorescence, control array” value was 196,080,891.

Same assay, conditions: after second wash scan; unwashed control array; background subtracted
With “TAMRA-F-G-F-G-F-G-F-G-F-S-F-A-F-D-F-G-F ({TAMRA}-FGFGFGFGFSFAFDFGF) [Peptide P1-4]” the “Corrected signal, control array” value was 42,662,569. With “TAMRA-F-G-F-G-F-S-F-A-F-D-F-G-F ({TAMRA}-FGFGFSFAFDFGF) [Peptide P1-2]” the “Corrected signal, control array” value was 58,801,042.

Same assay, conditions: after second wash: 1 M NaCl/10 mM tris-HCl (pH 8.0), 30 minutes
In the case of “TAMRA-F-G-F-G-F-G-F-G-F-S-F-A-F-D-F-G-F ({TAMRA}-FGFGFGFGFSFAFDFGF) [Peptide P1-4]”, the “Average fluorescence, test array” value is reported as 159,100,527. In the case of “TAMRA-F-G-F-G-F-S-F-A-F-D-F-G-F ({TAMRA}-FGFGFSFAFDFGF) [Peptide P1-2]”, the “Average fluorescence, test array” value is reported as 135,695,639.

Same assay, conditions: after second wash: 1 M NaCl/10 mM tris-HCl (pH 8.0), 30 minutes; background subtracted
With “TAMRA-F-G-F-G-F-G-F-G-F-S-F-A-F-D-F-G-F ({TAMRA}-FGFGFGFGFSFAFDFGF) [Peptide P1-4]” the “Corrected signal, test array” value was 26,653,223. In the case of “TAMRA-F-G-F-G-F-S-F-A-F-D-F-G-F ({TAMRA}-FGFGFSFAFDFGF) [Peptide P1-2]”, the “Corrected signal, test array” value is reported as 3,248,336.

Same assay, conditions: after third wash scan; unwashed control array
For “TAMRA-F-G-F-G-F-G-F-G-F-S-F-A-F-D-F-G-F ({TAMRA}-FGFGFGFGFSFAFDFGF) [Peptide P1-4]”, the “Average fluorescence, control array” value was 176,102,487. For “TAMRA-F-G-F-G-F-S-F-A-F-D-F-G-F ({TAMRA}-FGFGFSFAFDFGF) [Peptide P1-2]”, the “Average fluorescence, control array” value was 185,727,868.

Same assay, conditions: after third wash scan; unwashed control array; background subtracted
For “TAMRA-F-G-F-G-F-G-F-G-F-S-F-A-F-D-F-G-F ({TAMRA}-FGFGFGFGFSFAFDFGF) [Peptide P1-4]”, the “Corrected signal, control array” value was 42,195,247. In the case of “TAMRA-F-G-F-G-F-S-F-A-F-D-F-G-F ({TAMRA}-FGFGFSFAFDFGF) [Peptide P1-2]”, the “Corrected signal, control array” value is reported as 51,820,628.

Same assay, conditions: after third wash: water, 30 minutes
For “TAMRA-F-G-F-G-F-G-F-G-F-S-F-A-F-D-F-G-F ({TAMRA}-FGFGFGFGFSFAFDFGF) [Peptide P1-4]”, the “Average fluorescence, test array” value was 135,681,173. With “TAMRA-F-G-F-G-F-S-F-A-F-D-F-G-F ({TAMRA}-FGFGFSFAFDFGF) [Peptide P1-2]” the “Average fluorescence, test array” value was 126,193,156.

Same assay, conditions: after third wash: water, 30 minutes; background subtracted
In the case of “TAMRA-F-G-F-G-F-G-F-G-F-S-F-A-F-D-F-G-F ({TAMRA}-FGFGFGFGFSFAFDFGF) [Peptide P1-4]”, the “Corrected signal, test array” value is reported as 11,383,947. In the case of “TAMRA-F-G-F-G-F-S-F-A-F-D-F-G-F ({TAMRA}-FGFGFSFAFDFGF) [Peptide P1-2]”, the “Corrected signal, test array” value is reported as 1,895,931.
